How the values were obtained:
HeLa Kyoto [1] = test: solubility in G1/S (NP-40 vs SDS abundance) (log2 ratio); higher = more soluble; conditions: cell cycle stage: G1/S
HeLa Kyoto [2] = test: solubility change mitosis vs G1/S (difference of NP-40 vs SDS log2 ratios) (log2 ratio difference); higher = more soluble in mitosis
HeLa Kyoto [3] = test: thermal stability score vs G1/S (z-score of summed log2 fold changes over temperatures); higher = more thermally stable than in G1/S
[4] = cell cycle stage: early G1 (4.5 h after nocodazole release)
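For solubility change mitosis vs G1/S (difference of NP-40 vs SDS log2 ratios) in this document: synchronized HeLa Kyoto cells (double thymidine block for G1/S, nocodazole release for mitosis), protein amounts in NP-40 versus SDS lysates quantified by mass spectrometry, three biological replicates.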
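For solubility in G1/S (NP-40 vs SDS abundance) in this document: HeLa Kyoto cells arrested at G1/S by double thymidine block, proteins quantified by TMT10plex mass spectrometry in mild NP-40 versus SDS extracts, three biological replicates.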
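For thermal stability score vs G1/S (z-score of summed log2 fold changes over temperatures) in this document: synchronized HeLa Kyoto cells, proteins quantified by TMT10plex mass spectrometry, three biological replicates, mitosis taken 0.5 h after nocodazole release, G1/S directly after double thymidine block.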

Sequence of CDK17 (chain, as listed by the source): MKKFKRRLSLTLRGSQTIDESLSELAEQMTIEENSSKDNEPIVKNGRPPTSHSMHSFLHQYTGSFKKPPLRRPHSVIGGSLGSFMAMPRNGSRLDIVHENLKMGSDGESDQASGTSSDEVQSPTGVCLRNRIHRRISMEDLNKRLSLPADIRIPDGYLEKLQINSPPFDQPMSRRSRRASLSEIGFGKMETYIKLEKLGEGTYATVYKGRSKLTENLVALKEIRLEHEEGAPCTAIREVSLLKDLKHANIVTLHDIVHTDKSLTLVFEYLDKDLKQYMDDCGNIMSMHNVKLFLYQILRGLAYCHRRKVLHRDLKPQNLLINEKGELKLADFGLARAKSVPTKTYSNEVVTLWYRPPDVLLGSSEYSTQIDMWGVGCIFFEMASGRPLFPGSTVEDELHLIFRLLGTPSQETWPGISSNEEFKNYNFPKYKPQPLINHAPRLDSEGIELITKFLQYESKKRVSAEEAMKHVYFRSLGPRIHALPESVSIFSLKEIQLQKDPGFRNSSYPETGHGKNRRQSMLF

| Substance | solubility in G1/S (log2) (HeLa Kyoto [1]) | solubility change mitosis (log2) (HeLa Kyoto [2]) | thermal stability score (HeLa Kyoto [3]; [4]) | thermal stability score (HeLa Kyoto [3]; cell cycle stage: mitosis) |
| --- | --- | --- | --- | --- |
| MEREPGAAGVRRALGRRLEAVLASRSEANAVFDILAVLQSEDQEEIQEAVRTCSRLFGALLERGELFVGQLPSEEMVMTGSQGATRKYKVWMRHRYHSCCNRLGELLGHPSFQVKELALSALLKFVQLEGAHPLEKSKWEGNYLFPRELFKLVVGGLLSPEEDQSLLLSQFREYLDYDDTRYHTMQAAVDAVARVTGQHPEVPPAFWNNAFTLLSAVSLPRREPTVSSFYVKRAELWDTWKVAHLKEHRRVFQAMWLSFLKHKLPLSLYKKVLLIVHDAILPQLAQPTLMIDFLTRACDLGGALSLLALNGLFILIHKHNLEYPDFYRKLYGLLDPSVFHVKYRARFFHLADLFLSSSHLPAYLVAAFAKRLARLALTAPPEALLMVLPFICNLLRRHPACRVLVHRPHGPELDADPYDPGEEDPAQSRALESSLWELQALQRHYHPEVSKAASVINQALSMPEVSIAPLLELTAYEIFERDLKKKGPEPVPLEFIPAQGLLGRPGELCAQHFTLS [NOC4L] | -1.47 | 0.579 | -3.25e-17 | 3.03e-17 |
| MGKMAAAVGSVATLATEPGEDAFRKLFRFYRQSRPGTADLEGVIDFSAAHAARGKGPGAQKVIKSQLNVSSVSEQNAYRAGLQPVSKWQAYGLKGYPGFIFIPNPFLPGYQWHWVKQCLKLYSQKPNVCNLDKHMSKEETQDLWEQSKEFLRYKEATKRRPRSLLEKLRWVTVGYHYNWDSKKYSADHYTPFPSDLGFLSEQVAAACGFEDFRAEAGILNYYRLDSTLGIHVDRSELDHSKPLLSFSFGQSAIFLLGGLQRDEAPTAMFMHSGDIMIMSGFSRLLNHAVPRVLPNPEGEGLPHCLEAPLPAVLPRDSMVEPCSMEDWQVCASYLKTARVNMTVRQVLATDQNFPLEPIEDEKRDISTEGFCHLDDQNSEVKRARINPDS [ALKBH1] | 0.0175 | -0.0399 | -0.273 | 0.558 |
| SNRPF | -1.06 | -0.0169 | -0.0433 | -0.451 |
| MAGFAELGLSSWLVEQCRQLGLKQPTPVQLGCIPAILEGRDCLGCAKTGSGKTAAFVLPILQKLSEDPYGIFCLVLTPTRELAYQIAEQFRVLGKPLGLKDCIIVGGMDMVAQALELSRKPHVVIATPGRLADHLRSSNTFSIKKIRFLVMDEADRLLEQGCTDFTVDLEAILAAVPARRQTLLFSATLTDTLRELQGLATNQPFFWEAQAPVSTVEQLDQRYLLVPEKVKDAYLVHLIQRFQDEHEDWSIIIFTNTCKTCQILCMMLRKFSFPTVALHSMMKQKERFAALAKFKSSIYRILIATDVASRGLDIPTVQVVINHNTPGLPKIYIHRVGRTARAGRQGQAITLVTQYDIHLVHAIEEQIKKKLEEFSVEEAEVLQILTQVNVVRRECEIKLEAAHFDEKKEINKRKQLILEGKDPDLEAKRKAELAKIKQKNRRFKEKVEETLKRQKAGRAGHKGRPPRTPSGSHSGPVPSQGLV [DDX49] | -0.148 | -0.0629 | 2.1 | 1.97 |
| MRPPACWWLLAPPALLALLTCSLAFGLASEDTKKEVKQSQDLEKSGISRKNDIDLKGIVFVIQSQSNSFHAKRAEQLKKSILKQAADLTQELPSVLLLHQLAKQEGAWTILPLLPHFSVTYSRNSSWIFFCEEETRIQIPKLLETLRRYDPSKEWFLGKALHDEEATIIHHYAFSENPTVFKYPDFAAGWALSIPLVNKLTKRLKSESLKSDFTIDLKHEIALYIWDKGGGPPLTPVPEFCTNDVDFYCATTFHSFLPLCRKPVKKKDIFVAVKTCKKFHGDRIPIVKQTWESQASLIEYYSDYTENSIPTVDLGIPNTDRGHCGKTFAILERFLNRSQDKTAWLVIVDDDTLISISRLQHLLSCYDSGEPVFLGERYGYGLGTGGYSYITGGGGMVFSREAVRRLLASKCRCYSNDAPDDMVLGMCFSGLGIPVTHSPLFHQARPVDYPKDYLSHQVPISFHKHWNIDPVKVYFTWLAPSDEDKARQETQKGFREEL [B3GLCT] | 0.0765 | -0.0692 | 1.99 | 2.59 |
| VPS13D | -0.404 | -0.104 | 0.236 | -0.0982 |
| MGSENSALKSYTLREPPFTLPSGLAVYPAVLQDGKFASVFVYKRENEDKVNKAAKHLKTLRHPCLLRFLSCTVEADGIHLVTERVQPLEVALETLSSAEVCAGIYDILLALIFLHDRGHLTHNNVCLSSVFVSEDGHWKLGGMETVCKVSQATPEFLRSIQSIRDPASIPPEEMSPEFTTLPECHGHARDAFSFGTLVESLLTILNEQVSADVLSSFQQTLHSTLLNPIPKCRPALCTLLSHDFFRNDFLEVVNFLKSLTLKSEEEKTEFFKFLLDRVSCLSEELIASRLVPLLLNQLVFAEPVAVKSFLPYLLGPKKDHAQGETPCLLSPALFQSRVIPVLLQLFEVHEEHVRMVLLSHIEAYVEHFTQEQLKKVILPQVLLGLRDTSDSIVAITLHSLAVLVSLLGPEVVVGGERTKIFKRTAPSFTKNTDLSLEDSPMCVVCSHHSQISPILENPFSSIFPKCFFSGSTPINSKKHIQRDYYNTLLQTGDPFSQPIKFPINGLSDVKNTSEDSENFPSSSKKSEEWPDWSEPEEPENQTVNIQIWPREPCDDVKSQCTTLDVEESSWDDCEPSSLDTKVNPGGGITATKPVTSGEQKPIPALLSLTEESMPWKSSLPQKISLVQRGDDADQIEPPKVSSQERPLKVPSELGLGEEFTIQVKKKPVKDPEMDWFADMIPEIKPSAAFLILPELRTEMVPKKDDVSPVMQFSSKFAAAEITEGEAEGWEEEGELNWEDNNW [SCYL3] | -0.0689 | -0.0596 | 0.969 | 0.364 |
| CDK17 | -0.187 | 0.0778 | 0.0888 | -0.0845 |
| MEQAPPDPERQLQPAPLEPLGSPDAGLGAAVGKEAEGAGEESSGVDTMTHNNFWLKKIEISVSEAEKRTGRNAMNMQETYTAYLIETRSVEHTDGQSVLTDSLWRRYSEFELLRSYLLVYYPHIVVPPLPEKRAEFVWHKLSADNMDPDFVERRRIGLENFLLRIASHPILCRDKIFYLFLTQEGNWKETVNETGFQLKADSRLKALNATFRVKNPDKRFTDLKHYSDELQSVISHLLRVRARVADRLYGVYKVHGNYGRVFSEWSAIEKEMGDGLQSAGHHMDVYASSIDDILEDEEHYADQLKEYLFYAEALRAVCRKHELMQYDLEMAAQDLASKKQQCEELVTGTVRTFSLKGMTTKLFGQETPEQREARIKVLEEQINEGEQQLKSKNLEGREFVKNAWADIERFKEQKNRDLKEALISYAVMQISMCKKGIQVWTNAKECFSKM [SNX4] | 0.0889 | -0.0064 | 0.919 | 0.324 |
| MLRGPWRQLWLFFLLLLPGAPEPRGASRPWEGTDEPGSAWAWPGFQRLQEQLRAAGALSKRYWTLFSCQVWPDDCDEDEEAATGPLGWRLPLLGQRYLDLLTTWYCSFKDCCPRGDCRISNNFTGLEWDLNVRLHGQHLVQQLVLRTVRGYLETPQPEKALALSFHGWSGTGKNFVARMLVENLYRDGLMSDCVRMFIATFHFPHPKYVDLYKEQLMSQIRETQQLCHQTLFIFDEAEKLHPGLLEVLGPHLERRAPEGHRAESPWTIFLFLSNLRGDIINEVVLKLLKAGWSREEITMEHLEPHLQAEIVETIDNGFGHSRLVKENLIDYFIPFLPLEYRHVRLCARDAFLSQELLYKEETLDEIAQMMVYVPKEEQLFSSQGCKSISQRINYFLS [TOR3A] | 0.0484 | -0.118 | 2.36 | 1.03 |
| MLLWPLRGWAARALRCFGPGSRGSPASGPGPRRVQRRAWPPDKEQEKEKKSVICVEGNIASGKTTCLEFFSNATDVEVLTEPVSKWRNVRGHNPLGLMYHDASRWGLTLQTYVQLTMLDRHTRPQVSSVRLMERSIHSARYIFVENLYRSGKMPEVDYVVLSEWFDWILRNMDVSVDLIVYLRTNPETCYQRLKKRCREEEKVIPLEYLEAIHHLHEEWLIKGSLFPMAAPVLVIEADHHMERMLELFEQNRDRILTPENRKHCP [TK2] | -0.273 | 0.0925 | -2.93 | -2.11 |
| ASPM | -0.625 | 0.177 | 0.917 | -0.0273 |
| DYNC2H1 | -0.273 | 0.0553 | 0.756 | 0.972 |
| MELRARGWWLLCAAAALVACARGDPASKSRSCGEVRQIYGAKGFSLSDVPQAEISGEHLRICPQGYTCCTSEMEENLANRSHAELETALRDSSRVLQAMLATQLRSFDDHFQHLLNDSERTLQATFPGAFGELYTQNARAFRDLYSELRLYYRGANLHLEETLAEFWARLLERLFKQLHPQLLLPDDYLDCLGKQAEALRPFGEAPRELRLRATRAFVAARSFVQGLGVASDVVRKVAQVPLGPECSRAVMKLVYCAHCLGVPGARPCPDYCRNVLKGCLANQADLDAEWRNLLDSMVLITDKFWGTSGVESVIGSVHTWLAEAINALQDNRDTLTAKVIQGCGNPKVNPQGPGPEEKRRRGKLAPRERPPSGTLEKLVSEAKAQLRDVQDFWISLPGTLCSEKMALSTASDDRCWNGMARGRYLPEVMGDGLANQINNPEVEVDITKPDMTIRQQIMQLKIMTNRLRSAYNGNDVDFQDASDDGSGSGSGDGCLDDLCSRKVSRKSSSSRTPLTHALPGLSEQEGQKTSAASCPQPPTFLLPLLLFLALTVARPRWR [GPC1] | -0.193 | -0.378 | 1.52 | 3.51 |
| MKEGRGSFSVERGPRKERETAQSGMWKGNSPAGSQGAAMEGTGGELGGQGNWGPEDAPGLLARASLIMLPWPLPLASSALTLLFGALTSLFLWYCYRLGSQDMQALGAGSRAGGVRGGPVGCSEAGGPSPGGPGDPGEGPRTEGLVSRRLRAYARRYSWAGMGRVRRAAQGGPGPGRGPGVLGIQRPGLLFLPDLPSAPFVPRDAQRHDVELLESSFPAILRDFGAVSWDFSGTTPPPRGWSPPLAPGCYQLLLYQAGRCQPSNCRRCPGAYRALRGLRSFMSANTFGNAGFSVLLPGARLEGRCGPTNARVRCHLGLKIPPGCELVVGGEPQCWAEGHCLLVDDSFLHTVAHNGSPEDGPRVVFIVDLWHPNVAGAERQALDFVFAPDP [ASPHD1] | 0.213 | -0.229 | 1.03 | 1.87 |
| MKCEHCTRKECSKKTKTDDQENVSADAPSPAQENGEKGEFHKLADAKIFLSDCLACDSCMTAEEGVQLSQQNAKDFFRVLNLNKKCDTSKHKVLVVSVCPQSLPYFAAKFNLSVTDASRRLCGFLKSLGVHYVFDTTIAADFSILESQKEFVRRYRQHSEEERTLPMLTSACPGWVRYAERVLGRPITAHLCTAKSPQQVMGSLVKDYFARQQNLSPEKIFHVIVAPCYDKKLEALQESLPPALHGSRGADCVLTSGEIAQIMEQGDLSVRDAAVDTLFGDLKEDKVTRHDGASSDGHLAHIFRHAAKELFNEDVEEVTYRALRNKDFQEVTLEKNGEVVLRFAAAYGFRNIQNMILKLKKGKFPFHFVEVLACAGGCLNGRGQAQTPDGHADKALLRQMEGIYADIPVRRPESSAHVQELYQEWLEGINSPKAREVLHTTYQSQERGTHSLDIKW [NARF] | 0.474 | -0.273 | -0.279 | -0.0946 |
| MEGVSALLARCPTAGLAGGLGVTACAAAGVLLYRIARRMKPTHTMVNCWFCNQDTLVPYGNRNCWDCPHCEQYNGFQENGDYNKPIPAQYLEHLNHVVSSAPSLRDPSQPQQWVSSQVLLCKRCNHHQTTKIKQLAAFAPREEGRYDEEVEVYRHHLEQMYKLCRPCQAAVEYYIKHQNRQLRALLLSHQFKRREADQTHAQNFSSAVKSPVQVILLRALAFLACAFLLTTALYGASGHFAPGTTVPLALPPGGNGSATPDNGTTPGAEGWRQLLGLLPEHMAEKLCEAWAFGQSHQTGVVALGLLTCLLAMLLAGRIRLRRIDAFCTCLWALLLGLHLAEQHLQAASPSWLDTLKFSTTSLCCLVGFTAAVATRKATGPRRFRPRRFFPGDSAGLFPTSPSLAIPHPSVGGSPASLFIPSPPSFLPLANQQLFRSPRRTSPSSLPGRLSRALSLGTIPSLTRADSGYLFSGSRPPSQVSRSGEFPVSDYFSLLSGSCPSSPLPSPAPSVAGSVASSSGSLRHRRPLISPARLNLKGQKLLLFPSPPGEAPTTPSSSDEHSPHNGSLFTMEPPHVPRKPPLQDVKHALDLRSKLERGSACSNRSIKKEDDSSQSSTCVVDTTTRGCSEEAATWRGRFGPSLVRGLLAVSLAANALFTSVFLYQSLR [TMEM201] | -0.162 | 0.283 | 0.522 | 0.638 |

From the supplement of paper PMC5998384
